In paper PMC7547225 (Proceedings of the National Academy of Sciences of the …, 2020):

Key:
[1] = target: the molecule itself
AUC = target: the molecule itself; assay: AUC

| Protein | stoichiometry N [1] | Kd (AUC) [nM] |
| --- | --- | --- |
| hs PCDH15 EC1-3 G16D/N369D/Q370N (domain or fragment) not shown | 2 |  |
| hs PCDH15 EC2-3 WT (domain or fragment) NSPTFKHESYYATVNELTPVGTTIFTGFSGDNGATDIDDGPNGQIEYVIQYNPDDPTSNDTFEIPLMLTGNIVLRKRLNYEDKTRYFVIIQANDRAQNLNERRTTTTTLTVDVLDGDDLGPMFLPCVLVPNTRDCRPLTYQAAIPELRTPEELNPIIVTPPIQAIDQDRNIQPPSDRPGILYSILVGTPEDYPRFFHMHPRTAELSLLEPVNRDFHQKFDLVIKAEQDNGHPLPAFAGLHIEILDENN |  | < 1000 |
